Experimental data published in patent US20240400722A1, “Chemically Inducible Heterodimerizing System and A Method For Generation Thereof” (Miltenyi Biotec B.V. & Co. KG, priority 2023, published 2024).
Entries after “also recorded” stand apart in the source; their conditions may differ.

How the values were obtained:
[1] = system: acVHH-V104D; assay: NanoBiT protein complementation assay in Jurkat T cells, intracellular binding to acVHH-V104D; format: cell-based, llama; conditions: for background signal at very low concentrations of caffeine / background signal in the absence of caffeine: compared with acVHH-WT/acVHH-WT homodimers
Description: (§1) The ac VHH variants were N-terminally fused to an extracellular globular domain used to assess expression, as well as a transmembrane domain, and C-terminally fused to a subunit of the split NanoLuc (NanoBiT® system), Promega. Thus, the resulting fusion protein consisted of an extracellular globular domain, followed by a transmembrane domain and intracellular ac VHH variants followed by a subunit of split NanoLuc luciferase.
The different chains built were as follows: the first polypeptide chain comprised truncated EGFR extracellular and transmembrane domain, followed by a 2×G4S linker and cither ac VHH-V104D or ac VHH-WT, followed by a linker (SEQ ID NO:31) and 11S NanoBiT® “Large BiT”, whereas the second polypeptide chain comprised truncated HER2 extracellular and transmembrane domain, followed by a linker (SEQ ID NO:32) and either ac VHH-V104D or ac VHH-WT or ac VHH-M1 or acVHH-M2 or dfM1-1 or dfM1-2, followed by a linker (SEQ ID NO:33) and 114 NanoBiT® “Small BiT”. The sequence of the truncated HER2 extracellular and transmembrane domain involved the amino acids at positions 339-683 according to the deposited Uniprot sequence (ID P04626). The sequence of the truncated EGFR extracellular and transmembrane domain involved the amino acids at positions 334-675 according to the deposited Uniprot sequence (ID P00533). The principle of the assay is as follows: upon binding of (i.e. dimerization) of the respective ac VHH variants, the fused NanoLuc luciferase subunits are brought into close proximity (the two subunits being fused to the two different polypeptide chains, respectively), thus resulting in a functional luciferase enzyme, whose activity can be measured.
In vitro transcription was performed with 200 ng of purified PCR product using the mMessage mMachine T7 Ultra Kit (Ambion) according to the manufacturer's instructions. The resulting mRNAs were column purified with the RNeasy Kit (Qiagen), aliquoted to 5 μg and frozen at −80° C. until electroporation. Jurkat T cells were electroporated with 5 μg mRNA per chain (10 μg mRNA total) using the Gene Pulser (Bio-Rad) and the following parameters: square wave protocol, 500 V, 5 ms, 4 mm cuvettes.
Intracellular function of the dimers was assessed with the Nano-Glo® Luciferase Assay System (Promega).

[2] = system: acVHH-V104D; assay: Yeast surface display binding of acVHH variants to soluble acVHH-V104D; parameters: species or system llama; conditions: for background binding signal in the absence of any small molecule: 500 nM soluble acVHH-V104D, buffer only (control, PBSA); for affinity towards acVHH-V104D: summary statement, interaction dependent on caffeine; for affinity (KD) to acVHH-V104D: titration with soluble acVHH-V104D in the presence of 30 μM caffeine; for dependency of heterodimerization with acVHH-V104D on the presence of caffeine: yeast display flow cytometry, with or without caffeine
Description: The staining for flow cytometry characterization was performed in PBSA (PBS containing 15 μM bovine serum albumin). […] In addition, controls with buffer only (containing neither an ac VHH variant nor caffeine) were included. After a washing step the cells were stained for 20 min at 4° C. and shaking with either streptavidin-Alexa Fluor 647 (Invitrogen) or Penta-His-Alexa Fluor 647 (Qiagen) to assess acVHH-V104D or acVHH-WT binding, as well as anti-HA-Alexa Fluor 488 (clone 16B12, Biolegend) or anti-c-myc AlexaFluor 488 (9E10, Thermofisher) to assess display (anti-HA) or full-length display (anti-c-myc) of the acVHH variants, respectively. After a final washing step, the cells were analyzed with a CytoFLEX S flow cytometer (Beckman Coulter).
Expression of the acVHH variants on yeast was induced by culturing the cells in SG-CAA medium (20 g/L galactose, 2 g/L glucose, 6.7 g/L yeast nitrogen base, 5 g/L bacto casamino acids, 10.2 g/L Na2HPO4*7 H2O, 8.56 g/L NaH2PO4*H2O) overnight at 20° C. and 180 rpm. Detection of full-length proteins on the surface of the cells was carried out by staining the cells with anti-c-myc AlexaFluor 488 (9E10, Thermo Fisher). […] After a washing step with PBSA, they were stained with an anti-HA-Alexa Fluor 488 (BioLegend) to gate for displaying yeast cells and the geometric mean fluorescence intensity (gMFI) of binding to acVHH-V104D, detected by co-staining with a Penta-His-Alexa Fluor 647 (Qiagen) (recognizing the His-tag on acVHH-V104D) was measured.
Expression of the variants on yeast was carried out in SG-CAA as described above. Full length display was assessed by staining with an anti-c-myc AlexaFluor 488 (9E10, Thermo Fisher) and binding to soluble acVHH-V104D was assessed by staining with Penta-His-Alexa Fluor 647 (Qiagen).
56 clones of the library were sequenced as explained in Example 2. Only 2 variants were obtained, namely dfM1-1 and dfM1-2. Their binding and affinity to soluble acVHH-V104D as well as full length display was assessed with yeast surface display as described in Example 2.

[3] = Preparative size exclusion chromatography of acVHH variants; format: physicochemical; conditions: HiLoad Superdex 75 pg, elution in PBS
Description: Protein aggregates were removed via preparative size exclusion chromatography (SEC). The samples were first centrifuged at 16 000 rpm for 3 min to remove large aggregates and the supernatant was loaded onto a HiLoad Superdex 75 pg column connected to a Bio-Rad NG-C chromatography system. Elution was performed in PBS and the fractions containing proteins based on absorbance at 280 nm were pooled, concentrated as mentioned above and stored at −30° C.

[4] = system: acVHH-WT; assay: NanoBiT protein complementation assay in Jurkat T cells, acVHH-WT homodimer; format: cell-based, llama
Description: as §1
The different chains built were as follows: the first polypeptide chain comprised truncated EGFR extracellular and transmembrane domain, followed by a 2×G4S linker and cither ac VHH-V104D or ac VHH-WT, followed by a linker (SEQ ID NO:31) and 11S NanoBiT® “Large BiT”, whereas the second polypeptide chain comprised truncated HER2 extracellular and transmembrane domain, followed by a linker (SEQ ID NO:32) and either ac VHH-V104D or ac VHH-WT or ac VHH-M1 or acVHH-M2 or dfM1-1 or dfM1-2, followed by a linker (SEQ ID NO:33) and 114 NanoBiT® “Small BiT”. […] The principle of the assay is as follows: upon binding of (i.e. dimerization) of the respective ac VHH variants, the fused NanoLuc luciferase subunits are brought into close proximity (the two subunits being fused to the two different polypeptide chains, respectively), thus resulting in a functional luciferase enzyme, whose activity can be measured. […]

[5] = +/- 30 μM caffeine, normalized to acVHH-WT homodimer with caffeine
[6] = increasing concentrations of caffeine

Molecule | intracellular binding with acVHH-V104D [1, 5] | background signal at very low concentrations of caffeine [1] | background signal in the absence of caffeine [1] | background binding signal in the absence of any small molecule [2] | affinity towards acVHH-V104D [2] | affinity (KD) to acVHH-V104D [2] | intracellular binding with acVHH-V104D [1, 6] | preparative SEC profile [3] | intracellular homodimerization of acVHH-WT ([4]; +/- 30 μM caffeine) | intracellular homodimerization of acVHH-WT [4, 6] | dependency of heterodimerization with acVHH-V104D on the presence of caffeine [2]
dfM1-1 (protein, left off: large carriers; small tags and cut ends) QVQLVESGGGLVQAGGSLRLSATAYGKTGTIYSMAWFRQAPGKEREFLAPVALGLQSTYYMDSVKGRFTISRDKGKNTVYLQMDSLKPEDTAVYYAAATRAYSVGYDYWGQGTQVTVTS | efficient heterodimerization | strongly reduced | strongly reduced | does not trigger any detectable signal | high affinity in the nanomolar range | low nM range |  |  |  |  | 
dfM1-2 (protein, left off: large carriers; small tags and cut ends) EVQLVESGGGLVQAGGSLRLSATAYGRTGTIYSMAWFRQAPGKEREFLAPVALGLQSTYYMDSVKGRFTISRDKGKNTVYLQMDSLKPEDTAVYYAAATRAYSVGYDYWGQGTQVTVSS | efficient heterodimerization | strongly reduced | strongly reduced | does not trigger any detectable signal | high affinity in the nanomolar range | low nM range |  |  |  |  | 
acVHH-V104D: acVHH-WT variant with point mutation V104D, SEQ ID NO:2; first antigen binding domain AB1 (protein) VHH: QVQLVESGGGLVQAGGSLRLSCTASGRTGTIYSMAWFRQAPGKEREFLATVGWSSGITYYMDSVKGRFTISRDKGKNTVYLQMDSLKPEDTAVYYCTATRAYSDGYDYWGQGTQVTVSS | does not show any detectable homodimerization |  |  |  |  |  | does not show any detectable homodimerization | monomeric profile; also recorded: elutes as a defined monomeric peak |  |  | 
acVHH-WT: existing thermally stable caffeine-specific single domain antibody fragment from llama used for homodimerization, SEQ ID NO:1 (protein) VHH: QVQLVESGGGLVQAGGSLRLSCTASGRTGTIYSMAWFRQAPGKEREFLATVGWSSGITYYMDSVKGRFTISRDKGKNTVYLQMDSLKPEDTAVYYCTATRAYSVGYDYWGQGTQVTVSS |  |  |  |  |  |  | very weak heterodimerization |  | shows homodimerization, which is enhanced by addition of caffeine | shows homodimerization, which is enhanced by addition of caffeine | 
acVHH-M2 (protein, left off: large carriers; small tags and cut ends) QVQLVESGGGLVQAGGSLRLSCTASGRTGTIYSMAWFRQAPGKEREFLAQQRWLFRRTYYMDSVKGRFTISRDKGKNTVYLQMDSLKPEDTAVYYCTATRAYSVGYDYWGQGTQVTVSS | not detectable |  | strongly reduced | virtual absence of any background signal | high affinity in the nanomolar range |  |  |  |  |  | clear dependency
acVHH-M1 (protein, left off: large carriers; small tags and cut ends) QVQLVESGGGLVQAGGSLRLSCTASGRTGTIYSMAWFRQAPGKEREFLAPVALGLQSTYYMDSVKGRFTISRDKGKNTVYLQMDSLKPEDTAVYYCTATRAYSVGYDYWGQGTQVTVSS | weak | strongly reduced | strongly reduced | virtual absence of any background signal; also recorded: does not trigger any detectable signal | high affinity in the nanomolar range | low nM range |  |  |  |  | clear dependency
